Data as given in publication doi:10.1101/2025.05.14.654016, “Phosphatase activity is dispensable for PRL-3-mediated oncogenesis and tumor progression” (bioRxiv, 2025).

Tests used:
Conditions in all cases: both partners purified
[1] = target: T1, recombinant full-length human PRL-3 (human, UniProt O75365 1-173); experiment: co-IP; in vitro, purified proteins: HA-CBS or HA-CBS-mScarlet3 (2.5 μM) on HA-Tag magnetic beads; equimolar PRL-3 or LSSmGFP-PRL3.C104D with 1 mM TCEP, pre-incubated with 50 μM test compounds or DMSO; 25 mM Tris-HCl pH 7.4, 150 mM NaCl, 1% NP-40, 5% glycerol; room temperature
T1 construct: full-length human PRL-3 cloned into pSKB3 (modified pET-28b with a TEV site); also called purified PRL-3; non-fluorescent PRL-3; source: E. coli BL21 Star DE3, purified (Ni-NTA, TEV cleavage, second Ni-NTA, Superdex 200)

[2] = target: T2, LSSmGFP-PRL-3.C104D (human, UniProt O75365 1-173, C104D); experiment: as above
T2 construct: full-length PRL-3 with C104D, joined to LSSmGFP at its N-terminus by a glycine/serine linker; also called FRET donor; source: E. coli BL21 Star DE3, purified (Ni-NTA, TEV cleavage, second Ni-NTA, Superdex 200); not shown: LSSmGFP, N-terminal, kept

[3] = target: T2, LSSmGFP-PRL-3.C104D; experiment: FRET or BRET; in vitro FRET of purified proteins, LSSmGFP-PRL-3 C104D with increasing concentrations of HA-CBS-mScarlet3; excitation 400 nm, emission 600 nm

T1 sequence (O75365 whole entry): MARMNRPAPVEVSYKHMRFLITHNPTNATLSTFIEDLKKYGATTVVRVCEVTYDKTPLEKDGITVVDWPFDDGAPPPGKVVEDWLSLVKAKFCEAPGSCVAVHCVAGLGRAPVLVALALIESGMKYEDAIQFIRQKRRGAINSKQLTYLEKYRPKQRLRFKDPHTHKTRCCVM
T2 sequence (O75365 whole entry C104D): as the sequence (O75365 whole entry) above, with C104D counted along it

| binding result [1] | binding result [2] | binding result [3] | Binder |
| --- | --- | --- | --- |
| binds | binds |  | HA-CBS (CBS domain of CNNM3, residues Y301-D451, with an N-terminal HA tag) (domain or fragment, UniProt Q8NE01-1 301-451, looked up, also called purified CBS domain; unlabelled HA-CBS; source: E. coli BL21 Star DE3, purified (Ni-NTA, TEV cleavage, second Ni-NTA, Superdex 200); not shown: HA, N-terminal, kept) YSDLSKGVLRCRTVEDVLTPLEDCFMLDASTVLDFGVLASIMQSGHTRIPVYEEERSNIVDMLYLKDLAFVDPEDCTPLSTITRFYNHPLHFVFNDTKLDAVLEEFKRGKSHLAIVQKVNNEGEGDPFYEVLGLVTLEDVIEEIIRSEILD |
| binds |  | binds | HA-CBS-mScarlet3 (domain or fragment, UniProt Q8NE01-1 301-451, looked up, CBS domain of CNNM3, residues Y301-D451, joined to mScarlet3 at its C-terminus by a glycine/serine linker; also called FRET acceptor; source: E. coli BL21 Star DE3, purified (Ni-NTA, TEV cleavage, second Ni-NTA, Superdex 200); not shown: HA, N-terminal, kept; mScarlet3, C-terminal, kept) YSDLSKGVLRCRTVEDVLTPLEDCFMLDASTVLDFGVLASIMQSGHTRIPVYEEERSNIVDMLYLKDLAFVDPEDCTPLSTITRFYNHPLHFVFNDTKLDAVLEEFKRGKSHLAIVQKVNNEGEGDPFYEVLGLVTLEDVIEEIIRSEILD |
